The values below are quoted from earlier work in article PMC4194041.

As a reminder, the Kd is the concentration at which binding is half-saturated.

In the data set the target is AP180 fragment with two D(L/I)(L/F) motifs (UniProt Q61548). Briefly: NMR.
UniProt Q61548, sequence (Q61548 623-680): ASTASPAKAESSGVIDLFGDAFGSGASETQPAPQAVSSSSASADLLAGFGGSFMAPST

Take “Clathrin heavy chain TD (from UniProt P11442)”: the dissociation constant (Kd) is 250 µM.
